For experiment [1], the target named is T1, extracellular domain of hIFNGR2 (human, UniProt P38484 28-247, conjugated to Alexa647 (site not stated)).
T1 construct: also called hIFNGR2-ECD; human IFNGR2 ECD
T1 sequence: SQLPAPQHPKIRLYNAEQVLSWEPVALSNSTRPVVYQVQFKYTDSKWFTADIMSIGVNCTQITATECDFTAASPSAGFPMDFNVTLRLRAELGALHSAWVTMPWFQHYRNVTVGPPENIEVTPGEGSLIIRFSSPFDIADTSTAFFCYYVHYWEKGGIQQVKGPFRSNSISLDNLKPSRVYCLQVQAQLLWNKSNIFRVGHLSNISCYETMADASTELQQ
The experiment is described as follows: flow cytometry. A general note: In flow cytometry, cells or beads pass a laser one at a time.

The target of experiment [2] is T2, extracellular domain of mIFNGR1 (mouse, UniProt P15261 26-254, conjugated to Alexa647 (site not stated)).
T2 construct: Origin and tags of the murine antigen are not described; UniProt P15261 residues 26-254; also called mIFNGR1-ECD; murine IFNGR1 ECD
T2 sequence: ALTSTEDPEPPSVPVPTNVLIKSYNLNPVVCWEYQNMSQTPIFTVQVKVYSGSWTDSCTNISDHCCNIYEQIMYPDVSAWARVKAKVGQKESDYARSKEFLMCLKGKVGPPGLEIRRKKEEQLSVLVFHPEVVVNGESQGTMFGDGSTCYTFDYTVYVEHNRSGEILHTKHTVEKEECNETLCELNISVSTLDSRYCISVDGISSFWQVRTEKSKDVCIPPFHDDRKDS
The experiment in a line: flow cytometry, yeast-displayed VHH, 100 nM Alexa647-conjugated antigen. The method, then: (§1) Binding of individual VHH to human and murine antigen was tested by flow cytometry. Briefly, 2E5 yeast cells expressing a single sdAb clone were added to each well of a 96 well plate. The first plate was incubated with 100 nM of human antigen conjugated to Alexa647 whereas the second plate was incubated with 100 nM of murine antigen conjugated to Alexa647. Yeast cells were washed 3 times with PBS containing 1% bovine serum albumin. Yeast cells were analyzed using flow cytometry and clones showing a mean fluorescence intensity of greater than 1000 were considered as binding molecules. Specificity of sdAbs was confirmed by incubating yeast cells with a irrelevant protein conjugated to Alexa647. Positive clones were sequenced, and sequences analyzed to identify unique clonotypes.

Experiment [3] concerns the target T3, extracellular domain of hIFNGR1 (human, UniProt P15260 18-245, conjugated to Alexa647 (site not stated)).
T3 construct: UniProt P15260 residues 18-245; also called hIFNGR1-ECD; human IFNGR1 ECD
T3 sequence: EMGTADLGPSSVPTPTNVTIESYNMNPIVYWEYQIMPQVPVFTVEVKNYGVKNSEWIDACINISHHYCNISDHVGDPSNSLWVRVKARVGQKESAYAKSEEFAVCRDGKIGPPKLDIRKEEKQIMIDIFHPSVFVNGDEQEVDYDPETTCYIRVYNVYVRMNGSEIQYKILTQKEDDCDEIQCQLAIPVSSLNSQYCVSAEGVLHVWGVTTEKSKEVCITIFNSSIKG
The description is as above. The method, then: as §1

In experiment [4] the target is T3, extracellular domain of hIFNGR1. The experiment in a line: flow cytometry.

B1: DR953 (VHH)
VHH: QVQLVESGGGLVQAGDSLRLSCAASGPTFSTYAMAWFRQAPGKEREFVAAITQSGRTTYYEDSVKGRFTISKDNAKNTLYLQMNSLQPEDTAVYYCAARDLWSDSPDDWRIYSFWGQGTQVTVSS
notes: also called anti-IFNGR2 sdAb VHH DR953
Regarding B1, the binding result in experiment [1] is on record as “binds”.

B2: DR905 (VHH)
VHH: EVQLVESGGGLVQAGGSLRLSCVASGRTFTGYAMGWFRQAPGKEREFVAVITWSGATTYYSASVKGRFTLSRDNAKNTVYLQMNSLKSEDTAVYYCAIRIRDGVSPENPNEYGYWGQGTQVTVSS
notes: also called anti-IFNGR1 sdAb VHH DR905
On to B2, for which the binding result in experiment [2] and in experiment [3] was “binds” each time.

B3: DR956 (VHH)
VHH: EVQLVESGGGLVQAGGSLRLSCAASGRTFSSLAMAWFRQAPGKEREFVAATTILGGSADYGDPVKGRFTISRDNAKNTVYLQMNSLKPEDTAVYYCTGRRPAPSDNYWSPASYAYWGQGTQVTVSS
notes: also called anti-IFNGR2 sdAb VHH DR956
With B3, the binding result in experiment [1] is recorded as “binds”.

B4: DR918 (VHH)
VHH: EVQLVESGGGLVQAGGSLRLSCATSGLTDSTYGMAWFRQAPGKEREFVAAISRAGGSADHADSVKGRFTVSRDNAKKMVYLQMNSLKPEDTAVYYCASGRSYSSPYDYFNALAYSYWGQGTQVTVSS
notes: also called anti-IFNGR1 sdAb VHH DR918
For the molecule B4, the binding result in experiment [2] and in experiment [3] was “binds” in each case.

B5: DR910 (VHH)
VHH: EVQLVESGGGLVQTGGSLRLSCAASGRTFSSYAMAWFRQAPGKEREFVAAISILGGSADYEDSVQGRFTISRDNAKNTMYLQMNSLKPEDTAVYYCAARRPAPSDSYWSSTSYAYWGQGTLVTVSS
notes: also called anti-IFNGR1 sdAb VHH DR910
In the case of B5, the binding result in experiment [2] and in experiment [3] was “binds” each time.

B6: DR909 (VHH)
VHH: EVQLVESGGGLVQAGGSLRLSCAASGRTFGTSFGALSMGWFRQAPGKEREFVAAITRNTGRTFYADSVKDRFTISRDNAKNTASLQMNSLEPEDTAVYICAATNSYDDLRRSYAYNYWGQGTQVTVSS
notes: also called anti-IFNGR1 sdAb VHH DR909
Consider B6, for which the binding result in experiment [2] and in experiment [3] was “binds” throughout.

B7: DR922 (VHH)
VHH: QVQLVESGGGLVRAGGSLRLSCAASGSITSINTMGWFRQAPGKQRELVAAITSGGSTNYADSVKGRFTISRDNARNTVYLQMYSLKPEDTAVYYCEADSMYFRGQGTQVTVSS
notes: also called anti-IFNGR1 sdAb VHH DR922
Turning to B7, the binding result in experiment [2] and in experiment [3] was “binds” throughout.

B8: DR924 (VHH)
VHH: QVQLVESGGGLVQAGGSLRLSCTASGRTFSRYAMGWFRQAPGKEREFVATISRSGGTTSYANSVKGRFTISRDNAKNTVYLQMNSLKTEDTAVYNCAARDGPAMGVFGSDYDYWGQGTLVTVSS
notes: also called anti-IFNGR1 sdAb VHH DR924
Turning to B8, the binding result in experiment [2] and in experiment [3] was “binds” each time.

B9: DR913 (VHH)
VHH: EVQLVESGGGLVQAGGFLRLSCAASGRTFSSYAMGWFRQIPGKERELVAAISSWSGGSTYYADSVKGRFTISRDNAKNTVYLQMLSLKPEDTAVYYCTTGDYYSDYFKYDNENWGKGTQVTVSS
notes: also called anti-IFNGR1 sdAb VHH DR913
Regarding B9, the binding result in experiment [2] and in experiment [3] was “binds” in each case.

B10: DR923 (VHH)
VHH: QVQLVESGGGLVQAGGSLRLSCAASRRTFMTYAMGWFRQAPGKEREFVAAISWSSGSTYYADSVKGRFTISRDNAKNTMYLQMNSLKPEDTAVYYCTASSIATMYGPNDYAGQGTLVTVSS
notes: also called anti-IFNGR1 sdAb VHH DR923
Regarding B10, the binding result in experiment [2] and in experiment [3] was “binds” throughout.

B11: DR912 (VHH)
VHH: EVQLVESGGGLVQAGGSLRLSCAPSGRTFSSYAMAWFRQPPGKEREFVAAITVSGASTYYADSVKGRFTISRDNAKNSMYLQMNSLKPEDTAVYYCAAGGPGTIFPDYDYWGQGTQVTVSS
notes: also called anti-IFNGR1 sdAb VHH DR912
With B11, the binding result in experiment [2] and in experiment [3] was “binds” throughout.

B12: DR920 (VHH)
VHH: EVQLVESGGGLVQAGGSLRLSCAASGRSFANYAMGWFRQAPGKERETVAAISRGGGSTWYADSVKGRFTISKDNAKNTVYLQMNSLKPEDTAIYYCAARSYSGSYTYSFGEYDYWGQGTQVTVSS
notes: also called anti-IFNGR1 sdAb VHH DR920
For the molecule B12, the binding result in experiment [2] and in experiment [3] was “binds” each time.

B13: DR915 (VHH)
VHH: EVQLVESGGGLVQAGGSLRLSCAAARRTLHNFAMAWFRQAPGKEREFVAAISKGGGSADYADSVKGRFTISRDNAKNTVYLQMNSLKPEDTAVYYCAANDLASYSDSSYTSTSRYDYWGQGTQVTVSS
notes: also called anti-IFNGR1 sdAb VHH DR915
Take B13: the binding result in experiment [2] and in experiment [3] was “binds” throughout.

B14: DR914 (VHH)
VHH: EVQLVESGGGLVQAGGSLTLSCVASGRAFSNSAMAWFRQTPGKEREFVSAISRGGGSTDYADSVKGRFTISKDNAKNTVYLQMNSLKPEDTAVYYCAMRYYSGRYYESLEYDYWGQGTQVTVSS
notes: also called anti-IFNGR1 sdAb VHH DR914
Take B14: the binding result in experiment [2] and in experiment [3] was “binds” throughout.

B15: DR925 (VHH)
VHH: EVQLVESGGGLVQAGGSLVLSCAASGRTFSRYAMGWFRQAPGKEREFVAAISIGGGSADYADTVKGRFTISRNNAKNTMYLQMNSLKPEDTAVYYCAARTPRPSSSYFTPQDYEYWGQGTLVTVSS
notes: also called anti-IFNGR1 sdAb VHH DR925
For the molecule B15, the binding result in experiment [2] and in experiment [3] was “binds” in each case.

B16: DR903 (VHH)
VHH: EVQLVESGGGLVQAGGSLRLSCAASGRIASDYTRGWFRQAPGKEREFVAAIIRSVGDSYYADSVKGRFTISIDNAENTVYLQMNSLKPEDTAVYYCAVGGHLYYGSRWRYPASYDYWGQGTQVTVSS
notes: also called anti-IFNGR1 sdAb VHH DR903
Turning to B16, the binding result in experiment [4] and in experiment [2] was “binds” in each case.

B17: DR911 (VHH)
VHH: EVQLVESGGALVQAGGSLRLSCTVSGRSFSTYAMAWFRRAPGKERELVSAITVGGGSTYYVDSVKGRFTISRENAKNTLYLQMNNLKPEDTAIYICAARDYRRRSYAPEAEQYDYWGQGTQVTVSS
notes: also called anti-IFNGR1 sdAb VHH DR911
In the case of B17, the binding result in experiment [2] and in experiment [3] was “binds” each time.

B18: DR916 (VHH)
VHH: EVQLVESGGGLVQPGGSLRLSCTASGRPRTTYAMGWFRQAPGKEREIVAAISKAGGSTYVADSAKGRFAISKDNAKNTVYLQMNSLKPEDTAVYYCAARAGFAAQIFEYDYWGQGTLVTVSS
notes: also called anti-IFNGR1 sdAb VHH DR916
Consider B18, for which the binding result in experiment [2] and in experiment [3] was “binds” in each case.

B19: DR906 (VHH)
VHH: EVQLVESGGGLVQAGGSLRLSCAASGSTFSTYVMGWFRQAPGKEREFVAAISRSGGTTTYADSVKGRFDISRDNGKNTLFLQMNSLIPEDTAAYYCAARAGPAIGRTANDYHSWGQGTLVTVSS
notes: also called anti-IFNGR1 sdAb VHH DR906
In the case of B19, the binding result in experiment [2] and in experiment [3] was “binds” in each case.

B20: DR917 (VHH)
VHH: EVQLVESGGGLVQAGGSLRLSCAASGRTFSGYNMGWFRQAPGKEREFVAAIAWAGSRTYYTDSVKGRFTISRDNAKNTMYLQMNTLRPEDTAVYYCAAHDETYYRLDRVDLYTHWGQGTLVTVSS
notes: also called anti-IFNGR1 sdAb VHH DR917
B20: the binding result in experiment [2] and in experiment [3] was “binds” each time.

B21: DR958 (VHH)
VHH: QVQLVESGGGLVQAGDSLTLSCTASGRTFSGYNMGWFRQAPGKERDFVAAINWIGGATYYADSVKGRFTISRDNAKNTVYLQMNSLKPEDTAVYYCHRYSEKFYSGKDYYTRDYDYWGQGTQVTVSS
notes: also called anti-IFNGR2 sdAb VHH DR958
Regarding B21, the binding result in experiment [1] is given as “binds”.

B22: DR926 (VHH)
VHH: EVQLVESGGGLVQAGGSLRLSCAASGRTFSRYAMNWFRQAPGKEREFVAAISWSSGNTYVADSVKGRFTISRDNAKNTMYLQMNNLAPEDTAVYYCAATTIATMSDENTYWGQGTQVTVSS
notes: also called anti-IFNGR1 sdAb VHH DR926
Consider B22, for which the binding result in experiment [2] and in experiment [3] was “binds” throughout.

(Values after patent US20230272088A1 (SYNTHEKINE, published 2023).)
